From patent US20170313764A1 (ACADEMISCH MEDISCH CENTRUM, published 2017)

Experiments:
[1] = biological target: E1E2 of HCV isolate H77 with single mutation W529A (Hepatitis C virus genotype 1a, strain …, UniProt P27958 192-383; P27958 384-746); test: ELISA, GNA-captured E1E2 lysate; EC50 wild type / EC50 mutant
[2] = biological target: E1E2 of HCV isolate H77 with single mutation T526A (Hepatitis C virus genotype 1a, strain …, UniProt P27958 192-383; P27958 384-746); test: as above
[3] = biological target: E1E2 of HCV isolate H77 with single mutation G436A (Hepatitis C virus genotype 1a, strain …, UniProt P27958 192-383; P27958 384-746); test: as above
[4] = biological target: E1E2 of HCV isolate H77 with single mutation L441A (Hepatitis C virus genotype 1a, strain …, UniProt P27958 192-383; P27958 384-746); test: as above
[5] = biological target: E1E2 of HCV isolate H77 with single mutation G530A (Hepatitis C virus genotype 1a, strain …, UniProt P27958 192-383; P27958 384-746); test: as above
[6] = biological target: E1E2 of HCV isolate H77 with single mutation N415A (Hepatitis C virus genotype 1a, strain …, UniProt P27958 192-383; P27958 384-746); test: as above
[7] = biological target: E1E2 of HCV isolate H77 with single mutation Y443A (Hepatitis C virus genotype 1a, strain …, UniProt P27958 192-383; P27958 384-746); test: as above
[8] = biological target: E1E2 of HCV isolate H77 with single mutation R657A (Hepatitis C virus genotype 1a, strain …, UniProt P27958 192-383; P27958 384-746); test: as above
[9] = biological target: E1E2 of HCV isolate H77 with single mutation D535A (Hepatitis C virus genotype 1a, strain …, UniProt P27958 192-383; P27958 384-746); test: as above
[10] = biological target: E1E2 of HCV isolate H77 with single mutation F442A (Hepatitis C virus genotype 1a, strain …, UniProt P27958 192-383; P27958 384-746); test: as above
[11] = biological target: E1E2 of HCV isolate H77 with single mutation Y485A (Hepatitis C virus genotype 1a, strain …, UniProt P27958 192-383; P27958 384-746); test: as above
[12] = biological target: E1E2 of HCV isolate H77 with single mutation W616A (Hepatitis C virus genotype 1a, strain …, UniProt P27958 192-383; P27958 384-746); test: as above
[13] = biological target: E1E2 of HCV isolate H77 with single mutation A439G (Hepatitis C virus genotype 1a, strain …, UniProt P27958 192-383; P27958 384-746); test: as above
[14] = biological target: E1E2 of HCV isolate H77 with single mutation T435A (Hepatitis C virus genotype 1a, strain …, UniProt P27958 192-383; P27958 384-746); test: as above
[15] = biological target: E1E2 of HCV isolate H77 with single mutation S424A (Hepatitis C virus genotype 1a, strain …, UniProt P27958 192-383; P27958 384-746); test: as above
[16] = biological target: E1E2 of HCV isolate H77 with single mutation Y527A (Hepatitis C virus genotype 1a, strain …, UniProt P27958 192-383; P27958 384-746); test: as above
[17] = biological target: E1E2 of HCV isolate H77 with single mutation D698A (Hepatitis C virus genotype 1a, strain …, UniProt P27958 192-383; P27958 384-746); test: as above
[18] = biological target: E1E2 of HCV isolate AMS.3a.21071213 (genotype 3a) (Hepatitis C virus genotype 3a); test: cell-based or functional assay
[19] = biological target: E1E2 of HCV isolate UKN4.11.1 (genotype 4) (Hepatitis C virus genotype 4); test: cell-based or functional assay
[20] = biological target: E1E2 of HCV isolate AMS.2b.20876551.kloon21 (genotype 2b) (Hepatitis C virus genotype 2b); test: cell-based or functional assay
[21] = biological target: E1E2 of HCV isolate AMS.4d.20875969 (genotype 4d) (Hepatitis C virus genotype 4d); test: cell-based or functional assay

B1: AT12-010 (antibody, V domains shown)
VH: QLQLVQSGAEVKKPGSSVKVSCKASGGTFTSYAINWVRQVPGQGLEWMGEISPVFGTTHYAQKFQGRLKITADESADTAYMELSSLRSDDTAVYYCGRDRAPRLCSGGRCHSPPDHWGQGTLVTVSS
VL: DIQMTQSPSSVSASVGDRVTITCRASQGFGNWLAWYQQKPGRAPKLLIFGASTLQNGVPSRFSGSASGTDFTLTITSLQPEDFATYYCLQTNTFPYTFGQGTKVEIKR
relative binding, mutant vs wild type [1]: < 10%
relative binding, mutant vs wild type [2]: 29%
relative binding, mutant vs wild type [3]: < 10%
relative binding, mutant vs wild type [4]: < 10%
relative binding, mutant vs wild type [5]: < 10%
relative binding, mutant vs wild type [6]: 117%
relative binding, mutant vs wild type [7]: < 10%
relative binding, mutant vs wild type [8]: 99%
relative binding, mutant vs wild type [9]: 5%
relative binding, mutant vs wild type [10]: < 10%
relative binding, mutant vs wild type [11]: 107%
relative binding, mutant vs wild type [12]: < 10%
relative binding, mutant vs wild type [13]: 45%
relative binding, mutant vs wild type [14]: 47%
relative binding, mutant vs wild type [15]: 16%
relative binding, mutant vs wild type [16]: 19%
relative binding, mutant vs wild type [17]: 86%
IC50, HCVpp neutralization [18]: 1.41 µg/mL
IC90, HCVpp neutralization [18]: > 50 µg/mL
IC50, HCVpp neutralization [19]: > 50 µg/mL
IC90, HCVpp neutralization [19]: > 50 µg/mL
IC50, HCVpp neutralization [20]: 0.61 µg/mL
IC90, HCVpp neutralization [20]: 20.4 µg/mL
IC50, HCVpp neutralization [21]: > 50 µg/mL
IC90, HCVpp neutralization [21]: > 50 µg/mL

B2: AT12-007 (antibody, V domains shown)
VH: QVQLEQSGAEVKKPGASVKVSCKVSGYTLTELSMHWVRQAPGKGLEWMGSFDPADGERLYAQKFQGRVIMSEDTSTDTAYMELSSLRSEDAAVYYCATAPRMTMFGVIMALDSWGQGTLVTVSS
VL: DIQMTQSPSTLSASLGDRVTITCRASQNINKYLAWYQQKPGKAPKLLIYKASNLQSGVPSRFSGSGSGTDFILTISSLQPDDFATYYCQQYTTYSAWTFGQGTNVDIKR
relative binding, mutant vs wild type [1]: < 10%
relative binding, mutant vs wild type [2]: 31%
relative binding, mutant vs wild type [3]: 35%
relative binding, mutant vs wild type [4]: < 10%
relative binding, mutant vs wild type [5]: < 10%
relative binding, mutant vs wild type [6]: 115%
relative binding, mutant vs wild type [7]: < 10%
relative binding, mutant vs wild type [8]: 116%
relative binding, mutant vs wild type [9]: 15%
relative binding, mutant vs wild type [10]: < 10%
relative binding, mutant vs wild type [11]: 114%
relative binding, mutant vs wild type [12]: < 10%
relative binding, mutant vs wild type [13]: 67%
relative binding, mutant vs wild type [14]: 84%
relative binding, mutant vs wild type [15]: 34%
relative binding, mutant vs wild type [16]: 24%
relative binding, mutant vs wild type [17]: 103%
IC50, HCVpp neutralization [18]: 1.42 µg/mL
IC90, HCVpp neutralization [18]: 21.7 µg/mL
IC50, HCVpp neutralization [19]: 1.87 µg/mL
IC90, HCVpp neutralization [19]: > 50 µg/mL
IC50, HCVpp neutralization [20]: 0.26 µg/mL
IC90, HCVpp neutralization [20]: 9.41 µg/mL
IC50, HCVpp neutralization [21]: > 50 µg/mL
IC90, HCVpp neutralization [21]: > 50 µg/mL
